For one assay, the target named is T1, MICA (human, UniProt Q29983 24-383).
T1 chain: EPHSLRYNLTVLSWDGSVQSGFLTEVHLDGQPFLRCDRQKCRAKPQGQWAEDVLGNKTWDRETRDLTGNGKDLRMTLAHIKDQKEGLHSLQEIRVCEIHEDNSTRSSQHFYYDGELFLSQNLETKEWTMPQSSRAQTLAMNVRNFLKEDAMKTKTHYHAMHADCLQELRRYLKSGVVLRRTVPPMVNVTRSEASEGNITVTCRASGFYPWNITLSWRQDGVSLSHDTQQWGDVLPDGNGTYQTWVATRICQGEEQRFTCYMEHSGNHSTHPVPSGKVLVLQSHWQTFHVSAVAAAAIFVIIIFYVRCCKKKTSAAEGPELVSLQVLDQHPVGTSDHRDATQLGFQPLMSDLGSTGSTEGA
Kind of assay: Carterra LSA SPR.

The target of another assay is T2, MICB (human, UniProt Q29980 23-383).
T2 chain: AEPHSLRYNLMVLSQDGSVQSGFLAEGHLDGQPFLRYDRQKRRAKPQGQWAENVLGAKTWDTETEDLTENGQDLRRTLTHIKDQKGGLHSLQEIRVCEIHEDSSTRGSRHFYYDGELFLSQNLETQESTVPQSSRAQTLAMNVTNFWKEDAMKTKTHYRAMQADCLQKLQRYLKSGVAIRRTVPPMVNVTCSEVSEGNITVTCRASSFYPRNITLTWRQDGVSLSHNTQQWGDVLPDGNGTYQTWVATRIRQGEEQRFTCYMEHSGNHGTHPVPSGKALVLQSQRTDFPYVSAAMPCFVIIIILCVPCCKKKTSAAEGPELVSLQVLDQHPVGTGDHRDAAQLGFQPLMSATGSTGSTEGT
Nature of the assay: Carterra LSA SPR.

The target of a further assay is CD16 (UniProt P08637 17-208).
Another assay addresses cynoMICA. Nature of the assay: Carterra LSA SPR.

Sequence of CD16 (P08637 17-208): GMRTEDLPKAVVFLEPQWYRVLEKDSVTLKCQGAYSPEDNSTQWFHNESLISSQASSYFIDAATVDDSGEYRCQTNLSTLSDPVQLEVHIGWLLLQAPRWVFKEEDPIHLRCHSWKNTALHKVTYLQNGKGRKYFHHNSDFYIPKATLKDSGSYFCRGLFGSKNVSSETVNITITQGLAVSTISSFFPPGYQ

B1: 2E12 (antibody, V domains shown)
VH: QVQLQQSGAELVRPGTSVKVSCKASGYAFTNYLIEWVKQRPGQGLEWIGGINPGSGSTNYNEKFKGKATLTADKSSSTAYMQLSTLTFDDSAVYFCARLGGNYVDYWGQGTTLTVSS
VL: DIQMTQSPASLSASVGETVTITCRASGNIHNYLAWYQQKQGKSPQLLVYNAKTLADGVPSRFSGSGSGTQYSLKINSLQPEDFGSYYCQHFWSTPRTFGGGTKLEIK
Broadly, the Kd is the equilibrium constant for the complex coming apart. Read a high Kd as lower affinity. With B1, the Kd with MICA stood at 16.7 nM; with MICB, 4.68 nM.

B2: XENP41023 (antibody)
heavy: EVQLLESGGGLVQPGGSLRLSCAVSGFSLSSYGVIWVRQAPGKGLEYVSWVSSGGSTNYASSVKGRFTISRDTSKNTVYLQMNSLRAEDTAVYFCARGATNSGTDIWGPGTLVTVSSASTKGPSVFPLAPSSKSTSGGTAALGCLVKDYFPEPVTVSWNSGALTSGVHTFPAVLQSSGLYSLSSVVTVPSSSLGTQTYICNVNHKPSDTKVDKKVEPKSCDKTHTCPPCPAPELLGGPDVFLFPPKPKDTLMISRTPEVTCVVVDVSHEDPEVKFNWYVDGVEVHNAKTKPREEEYNSTYRVVSVLTVLHQDWLNGKEYKCKVSNKALPAPIEKTISKAKGQPREPQVYTLPPSREEMTKNQVSLTCDVSGFYPSDIAVEWESDGQPENNYKTTPPVLDSDGSFFLYSKLTVDKSRWEQGDVFSCSVMHEALHNHYTQKSLSLSPGK
scFv-Fc: EVQLLESGGGLVQPGGSLRLSCAVSGFSLSSYGVIWVRQAPGKGLEYVSWVSSGGSTNYASSVKGRFTISRDTSKNTVYLQMNSLRAEDTAVYFCARGATNSGTDIWGPGTLVTVSSGKPGSGKPGSGKPGSGKPGSDIVMTQSPSSLSASVGDRVTITCRASQSINSWLSWYQQKPGKPPKLLIYGASNLASGVPSRFKGSGSGTDFTLTISSLQPEDFATYYCQNNYGIIAAGATFGGGTKVEIKEPKSSDKTHTCPPCPAPELLGGPDVFLFPPKPKDTLMISRTPEVTCVVVDVSHEDPEVKFNWYVDGVEVHNAKTKPREEQYNSTYRVVSVLTVLHQDWLNGKEYKCKVSNKALPAPIEKTISKAKGQPREPQVYTLPPSREQMTKNQVKLTCLVKGFYPSDIAVEWESNGQPENNYKTTPPVLDSDGSFFLYSKLTVDKSRWQQGNVFSCSVMHEALHNHYTQKSLSLSPGK
light: DIVMTQSPSSLSASVGDRVTITCRASQSINSWLSWYQQKPGKPPKLLIYGASNLASGVPSRFKGSGSGTDFTLTISSLQPEDFATYYCQNNYGIIAAGATFGGGTKVEIKRTVAAPSVFIFPPSDEQLKSGTASVVCLLNNFYPREAKVQWKVDNALQSGNSQESVTEQDSKDSTYSLSSTLTLSKADYEKHKVYACEVTHQGLSSPVTKSFNRGEC
As to B2, in the assay with CD16, the Kd is 102 nM.

B3: XENP41024 (antibody)
heavy: EVQLLESGGGLVQPGGSLRLSCAVSGFSLSSYGVIWVRQAPGKGLEYVSWVSSGGSTNYASSVKGRFTISRDTSKNTVYLQMNSLRAEDTAVYFCARGATNSGTDIWGPGTLVTVSSASTKGPSVFPLAPSSKSTSGGTAALGCLVKDYFPEPVTVSWNSGALTSGVHTFPAVLQSSGLYSLSSVVTVPSSSLGTQTYICNVNHKPSDTKVDKKVEPKSCDKTHTCPPCPAPELLGGPSVFLFPPKPKDTLMISRTPEVTCVVVDVSHEDPEVKFNWYVDGVEVHNAKTKPREEEYNSTYRVVSVLTVLHQDWLNGKEYKCKVSNKALPAPEEKTISKAKGQPREPQVYTLPPSREEMTKNQVSLTCDVSGFYPSDIAVEWESDGQPENNYKTTPPVLDSDGSFFLYSKLTVDKSRWEQGDVFSCSVMHEALHNHYTQKSLSLSPGK
scFv-Fc: EVQLLESGGGLVQPGGSLRLSCAVSGFSLSSYGVIWVRQAPGKGLEYVSWVSSGGSTNYASSVKGRFTISRDTSKNTVYLQMNSLRAEDTAVYFCARGATNSGTDIWGPGTLVTVSSGKPGSGKPGSGKPGSGKPGSDIVMTQSPSSLSASVGDRVTITCRASQSINSWLSWYQQKPGKPPKLLIYGASNLASGVPSRFKGSGSGTDFTLTISSLQPEDFATYYCQNNYGIIAAGATFGGGTKVEIKEPKSSDKTHTCPPCPAPELLGGPSVFLFPPKPKDTLMISRTPEVTCVVVDVSHEDPEVKFNWYVDGVEVHNAKTKPREEQYNSTYRVVSVLTVLHQDWLNGKEYKCKVSNKALPAPEEKTISKAKGQPREPQVYTLPPSREQMTKNQVKLTCLVKGFYPSDIAVEWESNGQPENNYKTTPPVLDSDGSFFLYSKLTVDKSRWQQGNVFSCSVMHEALHNHYTQKSLSLSPGK
light: DIVMTQSPSSLSASVGDRVTITCRASQSINSWLSWYQQKPGKPPKLLIYGASNLASGVPSRFKGSGSGTDFTLTISSLQPEDFATYYCQNNYGIIAAGATFGGGTKVEIKRTVAAPSVFIFPPSDEQLKSGTASVVCLLNNFYPREAKVQWKVDNALQSGNSQESVTEQDSKDSTYSLSSTLTLSKADYEKHKVYACEVTHQGLSSPVTKSFNRGEC
Consider B3, for which, in the assay with CD16, the affinity, expressed as Kd, was 120 nM.

B4: D103388_1C7 [MICA/B]_H0_D103388_1C7 [MICA/B]_L0 (antibody, V domains shown)
VH: QVQLRQSGPGLGQPSQSLSITCTVFGFSLTNYGVHWVRQSPGKGLEWLGMIWNDGFTDFNAAFISRLSISKDNSKSQVFFKMNSLQPSDTAIYYCASPYFHYAMDYWGQGTSVTVSS
VL: QIVLTQSPAIMSASLGERVTMTCTASSSVSSSYLHWYQQKPGSSPKLWIYSTSNLASGVPARFSGSGSGTSYSLTISSMEAEDAATYYCHQYHRSPFTFGSGTKLEIK
In the case of B4, the Kd with MICA worked out at 22.9 nM; with MICB it was 2.27 nM.

B5: 1C7 (antibody, V domains shown)
VH: QVQLRQSGPGLGQPSQSLSITCTVFGFSLTNYGVHWVRQSPGKGLEWLGMIWNDGFTDFNAAFISRLSISKDNSKSQVFFKMNSLQPSDTAIYYCASPYFHYAMDYWGQGTSVTVSS
VL: QIVLTQSPAIMSASLGERVTMTCTASSSVSSSYLHWYQQKPGSSPKLWIYSTSNLASGVPARFSGSGSGTSYSLTISSMEAEDAATYYCHQYHRSPFTFGSGTKLEIK
Molecule B5 gave a Kd in the assay with cynoMICA of 23.8 nM.

B6: D94837_1E11_1 [MICA/B]_H0_D94837_1E11_1 [MICA/B]_L0 (antibody, V domains shown)
VH: EIQLQQSGPELVKPGASVKVSCKASGYAFTSYNMYWVKQSHGKSLEWIGYIDPYNGGTIYNQKFKGKATLTVDKSSSTAYMLLNSLTSEDSAVYYCARVGDAYPFAYWGQGTLVTVSA
VL: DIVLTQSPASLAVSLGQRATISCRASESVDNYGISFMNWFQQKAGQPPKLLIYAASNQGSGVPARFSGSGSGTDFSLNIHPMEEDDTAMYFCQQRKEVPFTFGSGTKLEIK
For the molecule B6, the Kd in the assay with MICA was 40.3 nM; with MICB, 52.8 nM.

B7: 1E11-1 (antibody, V domains shown)
VH: EIQLQQSGPELVKPGASVKVSCKASGYAFTSYNMYWVKQSHGKSLEWIGYIDPYNGGTIYNQKFKGKATLTVDKSSSTAYMLLNSLTSEDSAVYYCARVGDAYPFAYWGQGTLVTVSA
VL: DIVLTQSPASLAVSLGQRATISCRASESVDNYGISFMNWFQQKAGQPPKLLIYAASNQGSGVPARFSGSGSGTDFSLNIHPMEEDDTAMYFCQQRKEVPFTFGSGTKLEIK
Regarding B7, binding in the assay with cynoMICA was characterised by a dissociation constant (Kd) of 19.6 nM.

B8: D99136_2C11 [MICA/B]_H0_D99136_2C11 [MICA/B]_L0 (antibody, V domains shown)
VH: DVQLQESGPGLVKPSQSLSLTCSVTGYSITSGYNWDWIRHSPGNKLEWMGYISYDGSTNYNPSLKNRISITRDTSKNQFFLKLNSVTTEDTATYYCASSYYRYFDYWGQGTTLTVSS
VL: DVQMTQTTSSLSASLGDRVTISCSASQGISNYLNWFQQKPDGTVKLLIYYTSSLHSGVPSRFSGSGSGTDYSLTISNLEPEDIATYYCQQYTKLPWTFGGGTELEIK
Consider B8, for which the Kd was found to be 17.8 nM with MICA and 2.59 nM with MICB.

B9: 2F7 (antibody, V domains shown)
VH: QVHLKQSGAELVRPGASVKLSCKASGYTFTDYYIDWMNQRPGQGLEWIARIYPGSGNSYYNEKFKGKATLTAEKSASTAHMQLSSLTSEDSAVYFCAREGPTGVAPHWYFDVWGTGTTVTVSS
VL: DIVMSQSPSSLSSYLGDRVTISCRASQDIGNYLNWYQQKPDGTVKLLIYSTSRLHSGVPSRFSGSGSGTDYSLTISNLEQEDVATYFCQQGNTLPWTFGGGTKLEIK
As for B9, the Kd was 42.4 nM with MICA and 9.77 nM with MICB.

B10: 2E5 (antibody, V domains shown)
VH: EVKLVESGGGLVQPGGSLKLSCATSGFTFSDYYMFWVRQTPEKRLEWVAYISEGGGSTYYPDTIKGRFTISRDNAKNTLYLQMSRLRSEDTAMYYCVRQRGAYNRYDDGRGFAYWGQGTLVTVSA
VL: DVLMTQTPLSLPVSLGDQASISCRSSQSIVHSNGNTYLEWYLQKPGQSPKLLIYKVSNRFSGVPDRLSGSGSGTDFTLKISRGEAEDLGVYYCFQGSHVPWTFGGGTKLEIK
As for B10, the results for the Kd with MICA and with MICB were 0.599 nM and 0.807 nM, respectively.
